Assay results taken from patent publication US20170247475A1 (Boehringer Ingelheim, published 2017).
Numbering of substitutions follows the chain as printed.

B1: VEGFBII09A09 (VHH)
VHH: EVQLVESGGGLVQPGGSLRLSCVASGIRFMSMAWYRQAPGKHRELVARISSEGTTAYVDSVKGRFTISRDNSKNTVYLQMNSLKAEDTAVYYCNTFSSRPNPWGAGTTVTVSS
B2: VEGFBII87B07 (VHH)
VHH: EVQLVESGGGLVQPGGSLKLSCTASGFTFSTSWMHWVRQAPGKGLEWVSSIPPVGHFANYAPSVKGRFTISRDNAKNTLFLQMNSLKSEDTAVYYCAKDSAGRTKGQGTQVTVSS
B3: VEGFBII11C11 (VHH)
VHH: EVQLVESGGGLVQAGGSLMLSCAASGRALSSYAIGWFRQAPGREREFVARISWSGANTYYADSVKGRFTISRGNAKNTVYLQMNSLKPEDTAAYYCAAQTTSKYDNYDARAYGYWGQGTQVTVSS
B4: VEGFBII86G10 (VHH)
VHH: EVQLVESGGGLVQAGGSLRLSCAASGRTFNTYTMGWFRQTPGTEREFVAAIRWTVNITYYADSVKGRFTISRDIVKNTVYLQMNSLKPEDTAVYYCAAQTSAPRSLIRMSNEYPYWGQGTQVTVSS
B5: VEGFBII12B01 (VHH)
VHH: EVQLVESGGGLVQPGGSLRLACAASGFTLSSSWMYWVRQAPGKGLEWVSRISPGGLFTYYVDSVKGRFSVSTDNANNTLYLQMNSLKPEDTALYSCAKGGAPNYTPRGRGTQVTVSS
B6: VEGFBII86G08 (VHH)
VHH: EVQLVESGGGLMQTGDSLRLSCAASGLRFTSTNMGWFRQGPGKEREFVAAITLSGTTYYAEAVKGRFTISRDNDKNTVALQMNSLKPEDTAVYYCGADPSYYSTSRYTKATEYDYWGQGTQVTVSS
B7: VEGFBII39H11 (VHH)
VHH: EVQLVESGGGLVQAGGSLRLSCAASGRTFSAYDMGWFRQAPGKEREFVAVISWTGGMTYYADSVKGRFTISRDKAKNTVSLQMNSLKPEDTAVYYCAVDRRRTYSRWRYYTGVNEYEYWGQGTQVTVSS
B8: VEGFBII38A06 (VHH)
VHH: B7 VHH with T54S, K74N, S80Y, T103L, E115D, E117D
B9: VEGFBII37F09 (VHH)
VHH: B7 VHH with A14T, T54S, K65Q, K74N, N77S, S80Y, L86P, T103A, E115D, Y118F
B10: VEGFBII41D11 (VHH)
VHH: B7 VHH with V5M
B11: VEGFBII41B06 (VHH)
VHH: B7 VHH with G56D, V98A
B12: VEGFBII36C08 (VHH)
VHH: B7 VHH with G55N, G56S, K74N, S80Y, Y109F, E115D, E117D
B13: VEGFBII42F10 (VHH)
VHH: B7 VHH with T54S, Y59D, D73E, K74N, V79Q, S80F, D99G, T103A, E117D
B14: VEGFBII86C11 (VHH)
VHH: EVQLVESGGGLVQAGDSLRLSCTASGRTFNSYAMGWFRQAPGKERESVAHINRSGSSTYYADSVKGRFTISRDNAKNTVYLQLNSLKPEDTAVYYCAAGRYYSSDGVPSASFNYWGQGTQVTVSS
B15: VEGFBII04B08 (VHH)
VHH: EVQLVESGGGLVQPGGSLRLSCAASGSAVGDITVAWYRQAPGIQRQLVATITPSGYTYYWDFVKGRFTISRDNSKNIVYLQMNSLKPEDTAAYYCNTQFYWGQGTQVTVSS
B16: VEGFBII08F07 (VHH)
VHH: EVQLVESGGGLVQAGGSLRLSCAVSGSTFGLYAMGWFRQAPGREREFLSAITWSAGDTQYADSVKGRFTISRDNARNTVNLQMNGLKPEDTAVYYCAGRQWGGTYYYHGSYAYWGQGTQVTVSS
B17: VEGFBII12G04 (VHH)
VHH: B16 VHH with A14S, G16D, S27N, L48V, Y113W
B18: VEGFBII86F11 (VHH)
VHH: EVQLVESGGGLVQAGDSLRLSCFTSARTFDTWAMAWFRQAPGKEREFISAISWSGSMTYYTDSVKGRFIISRDNAQNTLFLQMNNTAPEDTAVYYCAAKTVDYCSAYECYARLEYDYWGRGAQVTVSS
B19: VEGFBII12E10 (VHH)
VHH: EVQLVESGGGLAQAGGSLRLSCTASGRTFNNYVMGWFRQAPGNEREFVAAITSTNGPTYYADSVKGRFTISGDNTKNKVFLQMDSLRPEDTAVYYCAIDEDLYHYSSYHYTRVALYHYWGQGTQVTVSS
B20: VEGFBII88E02 (VHH)
VHH: EVQLVESGGGLVQPGGSLRLSCVASGFRLDDYAIGWFRQAPGKEREAVSCISSSDTSIDYTNSVKGRFTFSRDNAKNTVYLQMNSLKPEDTAVYYCAAAFRCSGYELRGFPTWGQGTQVTVSS
B21: VEGFBII88A01 (VHH)
VHH: KVQLVESGGGLVQAGGSLRLSCAASERTFSNYAMDWFRQAPGKEREFVAAITRSGGGTYYADSVKGRFTISRDNAKNTVYLQMNSLKPEDTAVYYCAATRSSTIVVGVGGMEYWGKGTLVTVSS
B22: VEGFBII09F05 (VHH)
VHH: EVQLVESGGGLVQAGGSLRLSCAASGRTFSTDDVGWFRQAPGKEREFVAVIRWSTGGTYTSDSVKGRFTLSRDNAKNTMYLQMNSLKPEDTAVYYCAARSRPLGAGAWYTGETRYNYWGQGTQVTVSS
B23: VEGFBII16C03 (VHH)
VHH: B22 VHH with G8E, T113N, R114Y
B24: VEGFBII09A12 (VHH)
VHH: B22 VHH with K65A, N116D, Y117S
B25: VEGFBII09D05 (VHH)
VHH: EVQLVESGGGLVQPGDSLRLSCAASGLSFSRYGMGWFRQAPGKEREFVIAISEYDNVYTADSVRGRFTISRDNSKSTVYLQMNSLKSEDTAVYYCAASPTILLSTDEWYKYWGRGTQVTVSS
B26: VEGFBII88A02 (VHH)
VHH: EVQLVESGGGLVQAGGSLRLSCAASGFTFGDYDIGWFRQAPGNEREGVSCITTDVGTTYYADSVKGRFTISSDNAKNTVYLQINDLKPEDTAIYYCAVDTQDLGLDIFCRGNGPFDGWGQGTQVTVSS
B27: VEGFBII11G09 (VHH)
VHH: EVQLVESGGGLVQAGGSLRLSCAASTSIYSITVMAWFRQAPGKEREFVAAITWSAPTTYSADSVKGRFTISRDNAKNTVYLQMNSLKPEDSAIYYCAADRFKGRSIVTRSDYRYWGQGTQVTVSS
B28: VEGFBII07A06 (VHH)
VHH: B27 VHH with A24V, T32S, E46A, S60Y, M83T
B29: VEGFBII07A03 (VHH)
VHH: B27 VHH with R45S, T57S, T58S, S60Y, R113K
B30: VEGFBII11F10 (VHH)
VHH: B27 VHH with T57S, T58S, S60Y, M83V
B31: VEGFBII16F11 (VHH)
VHH: EVQLVESGGGLVQAGGSLRLSCAASGRTSSGYDMGWFRQAPGKEREFVTAITWSGGSTYSPDSVKGRFTISRDNAKNTVYLQMNNLTPEDTAVYYCASGRIWRSRDYDSEKYYDIWGHGTQVTVSS
B32: VEGFBII88B02 (VHH)
VHH: EVQLVESGGGLVQPGGSLRLSCTASGLNLDDYAIGWFRQAPGKEREGVSCISSYDSVTYYADHVKGRFTISRDSAKNTLYLQMNSLSIEDTGVYYCAAEREQLRRRESPHDELLRLCFYGMRYSGKGTLVTVSS
B33: VEGFBII08E07 (VHH)
VHH: EVQLVESGGGLAQAGGSLRLSCTTSGLTFSSYYMGWFRQAPGKEREFVATISWNKISTIYTDSVKGRFTVSRDNNKNTVYLQMNSLKPEDTAVYYCAADASRPTLRIPQYWGQGTQVTVSS
B34: VEGFBII86G11 (VHH)
VHH: EVQLVESGGGLVQAGGSLRLSCAASGLTFSLYTVGWFRQAPGKEREFVAYISRSGSNRYYVDSVKGRFTLSRDNAKNTVDLQMNSLKTEDTAVYYCAATSRGLSSLAGEYNYWGRGTQVTVSS
B35: VEGFBII12A07 (VHH)
VHH: EVQLVESGGGLVQAGGSLRLSCSVTGRTFNKYVMGWFRQAPGNDREFVAAITSRDGPTYYADSVKGRFTISGDNTKNKIFLQMNSLMPEDTAVYYCAIDEDLYHYSSYHFTRVDLYHYWGQGTQVTVSS
B36: VEGFBII08E06 (VHH)
VHH: EVQLVESGGGLVQPGGSLRLSCAASGSIVRSDVMGWYRQAPGKQRELVAFIRSLGSTYYAGSVKGRFTISRDDAANTVYLQMNNLKPEDTAVYYCNARFSGESYWGQGTPVTVSS
B37: VEGFBII12C04 (VHH)
VHH: B36 VHH with D73N

What follows are binders tested against T1, recombinant human VEGF165 (human, UniProt P15692-4 27-191) (assay: ELISA screen, periplasmic extract on coated hVEGF165).
T1 construct: also called hVEGF165; rhVEGF165
T1 sequence (P15692 other isoform, or with tags, fused parts or gaps limits assumed): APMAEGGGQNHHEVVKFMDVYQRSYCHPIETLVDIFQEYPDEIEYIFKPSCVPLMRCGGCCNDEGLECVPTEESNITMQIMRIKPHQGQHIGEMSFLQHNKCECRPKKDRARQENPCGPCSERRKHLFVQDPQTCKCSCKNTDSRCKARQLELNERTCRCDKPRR
Description: Wells are blocked with a casein solution (1%). After addition of typically a 10-fold dilution of the periplasmic extracts, VHH binding is detected using a mouse anti-myc (Roche) and an anti-mouse-HRP conjugate (DAKO). Clones showing ELISA signals of >3-fold above background are considered as VEGF binding VHHs.

Binding result, binds:
B1, B2, B3, B4, B5, B6, B7, B8, B9, B10, B11, B12, B13, B14, B15, B16, B17, B18, B19, B20, B21, B22, B23, B24, B25, B26, B27, B28, B29, B30, B31, B32, B33, B34, B35, B36, B37
